In the supplement of paper PMC10567573:

B1: GMCL1 (parent)
chain: FCYCAGSHKRKRSSGSFCYCHPDS
B2: DVL3 (parent)
chain: SDVVDWLYHNVEGFTDRREARKYA

Variants of: B1
Test: protein stability index of a GFP-peptide fusion (GPS, HEK-293T) (PSI 1-6); higher = more stable
Details: c terminus: a fixed tail appended
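Also: lentivirally expressed fusions sorted by FACS into six bins by GFP to DsRed ratio, PSI derived from sequencing read proportions per bin multiplied by bin number.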

Protein stability index: each site, then its substitutions
H21: D 2.47 | K 3.17 | Q 2.74 | G 2.55 | S 2.87 | Y 2.43 | A 2.41 | T 2.47 | C 1.11 | N 2.43 | R 2.54 | E 2.73 | I 2.69 | W 1.63 | F 2.51
D23: S 1.94 | V 1.44 | W 2.16 | I 1.83 | N 1.92 | R 1.99 | M 2.39 | T 3.04 | K 2.42 | C 1.28 | L 1.98
P22: C 2.12 | S 2.53 | T 1.32 | R 2.1 | D 2.78 | I 1.47 | W 2.27 | Y 2.02 | V 1.96 | F 1.38 | L 1.63 | E 2.01 | N 2.69 | K 2.09 | Q 1.91
S24: T 2.02 | R 2.28 | A 1.94 | K 2.44 | H 2.09 | C 1.51 | N 2.12 | E 2.51 | I 2.03 | D 1.87 | G 2.46
H8: Q 1.43 | V 1.89 | K 1.99 | N 2.19 | L 1.1 | C 2.37
S14: P 1.93 | A 2.2 | W 2.03 | L 2.6 | M 2.04 | G 1.89 | Y 2.07 | I 1.64 | F 2.35 | D 2.18
S7: D 1.55 | C 2.1 | M 1.98 | R 2.34 | G 1.02 | V 1.93 | E 2.2 | I 1.75 | K 2.29 | N 2.16 | L 1.89 | P 1.7
C20: I 2.06 | L 2.18 | S 1.5 | A 2.01 | W 1.95 | H 2 | M 2.3 | Y 1.71 | E 1.88 | R 1.68 | V 1.91 | Q 1.5 | F 1.84
K11: R 1.98 | E 1.87 | G 1.97 | S 2.85 | T 2.22 | N 1.93 | P 2.31 | V 1.39 | C 1.77 | H 2.18 | Q 1.33 | A 1.59
F1: L 2.8 | S 3.78 | E 4.31 | K 3.78 | Y 1.55 | C 4.1 | V 3.65 | R 3.85 | W 1.91 | M 3.46 | I 3.79 | N 3.81 | H 3.17
G15: C 1.5 | A 1.61 | K 1.72 | L 3.16 | N 2.81 | P 1.6 | E 2.67 | R 1.62 | H 2.07 | I 2.41
F17: E 3.01 | H 2.46 | M 2.15 | Y 2.25 | L 2.3 | A 2.11 | K 2.17 | S 1.78 | I 2.05 | Q 2.61 | G 2.19 | T 2.27 | C 3.2 | R 2.53 | V 2.04 | P 2.98
S13: C 2.17 | M 2.04 | V 1.86 | Q 1.7 | G 1.56 | F 2.24 | A 1.95 | R 1.85 | I 1.88 | H 2.21 | N 1.64 | W 1.84 | Y 1.7
Y19: F 2.31 | D 2.9 | L 1.96 | R 3.17 | C 2.86 | M 3 | G 2.52 | E 3.63 | S 3.31 | I 2.52 | N 3.38
Y3: F 2.01 | P 1.76 | K 2.82 | V 2.07 | W 2.88 | E 2.5 | H 1.81 | I 2.46 | R 2.3 | T 2.99
G6: C 2.53 | K 1.5 | E 1.86 | D 1.91 | P 1.34 | H 1.94 | W 2.84 | I 1.54 | S 2.39 | V 2.68 | R 2.05 | Y 2.59 | N 2.92 | F 1.92 | T 1.55 | L 2.44
C18: D 1.87 | N 2.2 | K 1.95 | V 1.83 | H 1.77 | W 2.99 | I 2.27 | R 1.63 | T 1.79 | S 2.65 | Q 2.63
C2: D 2.79 | F 2.25 | Y 2.03 | I 1.94 | G 2.7 | M 1.51 | P 1.53 | N 1.27 | H 1.81 | A 2.76
A5: Y 1.89 | N 2.03 | H 2.26 | V 2.67 | R 1.85 | P 2.58 | E 2.33 | K 2.53 | L 1.57 | F 2.37 | S 2 | W 2.26 | C 1.65 | M 1.88
R10: P 1.9 | E 2.5 | A 2.48 | D 2.02 | V 1.81 | Y 1.85 | Q 2.29 | F 1.4 | T 2.27 | K 1.96
R12: S 1.74 | E 1.15 | D 2.06 | A 2.04 | L 1.63 | C 1.85 | F 1.64 | K 1.97 | T 2.43 | G 1.38 | V 1.89
K9: S 2.76 | N 2.05 | M 1.77 | W 2.62 | I 1.94 | D 1.99 | R 1.61
S16: P 1.36 | A 2.33 | I 2.49 | N 1.36 | Y 2.14 | T 2.29 | C 1.91 | H 2 | Q 1.69 | R 1.59 | E 3.31
C4: M 2.52 | I 1.56 | W 2.56 | S 2.55 | G 1.7 | Q 1.01 | N 2.26 | D 1.74 | L 2.81 | T 2.06 | H 1.35

Variants of: B2
Test: as above
Details: c terminus: a fixed tail appended

Protein stability index of substitutions, site by site:
D2: L 2.12 | E 3.01 | C 2.16 | R 2.23 | Y 2.26 | P 2.62 | T 2.9 | W 1.64 | H 2.91 | V 2.72 | G 2.89 | K 2.73 | M 2.09 | A 1.85 | I 2.46 | S 2.74 | N 3.36 | F 1.9
S1: E 3.76 | F 2.23 | H 3.27 | C 2.71 | Q 2.9 | T 3.1 | G 3.78 | N 3.42 | R 2.52 | D 3.92 | L 3.51 | K 2 | V 3.5 | I 2 | P 2.15
V4: D 3.78 | C 2.77 | E 4.08 | A 3.09 | F 3.53
V3: D 4.59 | C 3.69 | M 3.85 | Q 4.64 | W 2.04 | I 2.98 | F 2.07 | L 3.15 | T 4.13 | S 3.44 | A 3.98 | E 5.17 | R 3.95 | H 3.39 | P 4.24 | N 4.22 | Y 3
